From publication PMC12098869, “An mRNA-display derived cyclic peptide scaffold reveals the substrate binding interactions of an N-terminal cysteine oxidase” (Nature Communications, 2025)
“And” between values parts separate entries of the source, which are not always exact repeats. Equal entries are not always repeated. Each block holds one molecule with its values, some of them ahead of it. Where a SMILES comes first, the peptide text is derived from it. Bridges are numbered along the chain shown (N, C = ends). Where no end group is shown, it is not given here.

Assays:
[1] = target: T1, ADO-I109A (Homo sapiens, UniProt Q96SZ5, I109A); test: SPR binding of substrate peptides to ADO variant
T1 construct: Full-length human ADO (Uniprot ID: Q96SZ5) was cloned; made in house; host or cells: E. coli Rosetta2(DE3)
Description: (§1) Having verified the accuracy of the substrate analogue-bound crystal structures using MD simulations, key active site residues were mutated to assess their impact on binding and activity using SPR and LCMS. They were chosen based on their proximity to the substrate moieties and their conservation across species, including plants, where NCOs are called plant cysteine oxidases (PCOs; Fig. 5)[9],[10]. Two representative substrates, RGS5_2-15 and IL32_2-15 (a synthetic peptide corresponding to the methionine excised N-terminus of IL32, residues 2–15), were tested to compare interactions with different amino acid sequences.
(§2) SPR measurements were made using a Biacore T200 (Cytiva) instrument and data were analysed using the Biacore Insight Evaluation Software. Biotinylated-ADO was immobilised on a Biotin CAP chip (Cytiva) with a target density of ∼2500–3000 RU and peptide/protein substrates were injected over the chip. Experiments were conducted at 4 °C using both multi-cycle (fit using the equilibrium steady state affinity 1:1 binding model) and single-cycle kinetics mode (fit using a 1:1 binding model). A buffer comprising 20 mM HEPES pH 7.5, 500 mM NaCl, 10 mM DTT, and 0.1% (v/v) tween-20 was used as the running buffer at a flow rate of 50 μL/minute.
(§3) Supplementary Figure 20. SPR analysis of ADO variants with RGS5 peptide. (Left) Representative SPR sensorgram for the titration of RGS52-15 with amino acid substituted ADO. (Right) Fits of the equilibrium responses from the sensorgram in the left panels to a 1:1 binding model. The Kᴅ values are shown (Kᴅ given as the geometric mean of a minimum of three independent SPR measurements (n=3) with standard error). […] The […]
(§4) sensorgram is shown in red and the fit to the data is shown in black. The concentrations of RGS52-15 used in the titration are 25.6 nM, 64 nM, 160 nM, 400 nM, 1000 nM. The Kᴅ value is shown (Kᴅ given as the geometric mean of a minimum of three independent SPR measurements). Source data are provided as Source Data file.
(§5) (1 picture or pasted object on this page, not shown here)
(§6) Supplementary Figure 21. SPR analysis of ADO variants with IL32 peptide. (Left) Representative SPR sensorgram for the titration of IL322-15 with amino acid substituted ADO. (Right) Fits of the equilibrium responses from the sensorgram in the left […]
(§7) sensorgram is shown in red and the fit to the data is shown in black. The concentrations of IL322-15 used in the titration are 25.6 nM, 64 nM, 160 nM, 400 nM, 1000 nM. The Kᴅ value is shown (Kᴅ given as the geometric mean of a minimum of three independent

[2] = target: T2, ADO-Y212A (Homo sapiens, UniProt Q96SZ5, Y212A); test: SPR binding of substrate peptides to ADO variant
T2 construct: Full-length human ADO (Uniprot ID: Q96SZ5) was cloned; made in house; host or cells: E. coli Rosetta2(DE3)
Description: as §1, §2, §3, §4, §5, §6, §7

[3] = tested on: ADO-D206A; test: SPR binding of substrate peptides to ADO variant; parameters: species or system human
Description: as §1, §2
Supplementary Figure 20. SPR analysis of ADO variants with RGS5 peptide. […]

[4] = target: T3, 2-aminoethanethiol dioxygenase (ADO), full-length human, N-terminally His-tagged and biotinylated … (human, UniProt Q96SZ5 1-270, biotin (biotinylated during expression, 0.2 mM biotin added)); test: cell-based or functional assay
T3 sequence (looked up): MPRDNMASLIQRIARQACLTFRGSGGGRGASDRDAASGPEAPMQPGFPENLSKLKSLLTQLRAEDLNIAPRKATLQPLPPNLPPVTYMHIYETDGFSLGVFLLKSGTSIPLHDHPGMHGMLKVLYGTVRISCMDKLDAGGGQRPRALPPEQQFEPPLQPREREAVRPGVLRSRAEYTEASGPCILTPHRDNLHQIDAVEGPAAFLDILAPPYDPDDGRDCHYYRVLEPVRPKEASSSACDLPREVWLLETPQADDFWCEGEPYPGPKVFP

[5] = target: 2-aminoethanethiol dioxygenase (ADO), wild type, biotinylated (pQE80L-Navi-ADO) (human)
[6] = target: 2-aminoethanethiol dioxygenase (ADO), full-length human, N-terminally His-tagged and biotinylated (pQE80L-Navi-ADO) (human) (UniProt Q96SZ5)
[7] = target: 2-aminoethanethiol dioxygenase (ADO), wild type, biotinylated (pQE80L-Navi-ADO) (human); test: SPR; single-cycle kinetics (SCK), 1:1 binding model; biotinylated ADO or variant immobilised on a Biotin CAP chip, peptide injected at 25.6, 64, 160, 400, 1000 nM; 4 °C; 20 mM HEPES pH 7.5, 500 mM NaCl, 10 mM DTT, 0.1% (v/v) tween-20; 50 μL/minute
[8] = target: T4, 2-aminoethanethiol dioxygenase (ADO), full-length human, N-terminally His-tagged and biotinylated … (human, UniProt Q96SZ5 1-270, biotin (biotinylated during expression, 0.2 mM biotin added)); test: SPR; single-cycle kinetics (1:1 binding model); biotinylated ADO immobilised on a Biotin CAP chip (~2500-3000 RU), cyclic peptide injected; Biacore T200, 4 °C; 20 mM HEPES pH 7.5, 500 mM NaCl, 10 mM DTT, 0.1% tween-20; 50 µL/minute; each cell is one of three independent measurements; details: both partners purified
T4 construct: 2-aminoethanethiol dioxygenase (ADO), human, UniProt Q96SZ5, full length; Immobilised through its biotin on a Biotin CAP chip for SPR; also called wild type ADO; Biotinylated-ADO; source: E. coli Rosetta2(DE3), purified (Ni-NTA, SEC); not shown: biotinylation tag (from the vector pQE80L-Navi), N-terminal, kept
T4 sequence (looked up): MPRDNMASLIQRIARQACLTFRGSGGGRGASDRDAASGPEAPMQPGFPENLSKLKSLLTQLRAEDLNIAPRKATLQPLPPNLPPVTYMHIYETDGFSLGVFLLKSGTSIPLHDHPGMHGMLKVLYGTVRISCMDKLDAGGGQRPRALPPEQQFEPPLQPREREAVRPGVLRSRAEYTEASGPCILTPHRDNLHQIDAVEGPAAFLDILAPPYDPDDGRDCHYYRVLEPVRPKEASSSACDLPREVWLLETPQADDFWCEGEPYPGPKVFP

[9] = target: T5, 2-aminoethanethiol dioxygenase (ADO), wild type, biotinylated (pQE80L-Navi-ADO) (human, biotin on the Avi tag); test: SPR; single-cycle kinetics (SCK), 1:1 binding model; biotinylated ADO or variant immobilised on a Biotin CAP chip, peptide injected at 25.6, 64, 160, 400, 1000 nM; 4 °C; 20 mM HEPES pH 7.5, 500 mM NaCl, 10 mM DTT, 0.1% (v/v) tween-20; 50 μL/minute; details: both partners purified
T5 construct: 2-aminoethanethiol dioxygenase (ADO), human, full length; also called Biotinylated-ADO; source: E. coli Rosetta2(DE3), purified (Ni-NTA, SEC); not shown: Avi tag, N-terminal, kept; His6, N-terminal, kept
T5 chain: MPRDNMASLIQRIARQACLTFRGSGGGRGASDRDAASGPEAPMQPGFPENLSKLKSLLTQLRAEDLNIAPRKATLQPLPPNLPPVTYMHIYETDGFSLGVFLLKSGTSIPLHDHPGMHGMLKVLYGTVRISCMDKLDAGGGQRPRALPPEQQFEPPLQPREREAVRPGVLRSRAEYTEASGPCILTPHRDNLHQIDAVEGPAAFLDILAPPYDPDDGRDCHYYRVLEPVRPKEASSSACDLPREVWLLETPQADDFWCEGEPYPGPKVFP

T2 sequence (Q96SZ5 whole entry Y212A): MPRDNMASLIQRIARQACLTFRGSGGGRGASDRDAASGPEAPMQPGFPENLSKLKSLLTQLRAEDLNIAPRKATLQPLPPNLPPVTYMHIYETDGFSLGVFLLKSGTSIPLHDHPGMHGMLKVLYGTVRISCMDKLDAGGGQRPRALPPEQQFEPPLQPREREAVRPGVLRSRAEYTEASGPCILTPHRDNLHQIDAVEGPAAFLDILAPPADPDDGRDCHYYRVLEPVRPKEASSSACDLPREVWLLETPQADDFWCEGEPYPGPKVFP
T1 sequence (Q96SZ5 whole entry I109A): as the sequence (Q96SZ5 whole entry Y212A) above, with I109A, A212Y counted along it

- fold increase in KD relative to wild type ADO [1]: 35 fold
- KD ([2]; replicate 2): 24700 nM
- KD ([2]; replicate 3): 24700 nM
- binding to ADO-D206A (in words) [3]: no binding
Molecule: CSCC[C@H](NC(=O)[C@H](CC(=O)O)NC(=O)[C@H](CC(=O)O)NC(=O)[C@H](CO)NC(=O)[C@H](CC(C)C)NC(=O)[C@@H](NC(=O)[C@H](CCCCN)NC(=O)[C@@H]1CCCN1C(=O)[C@H](Cc1ccccc1)NC(=O)[C@@H](N)CS)C(C)C)C(=O)N[C@@H](CCCCN)C(=O)N[C@@H](CCCCN)C(=O)N[C@@H](CC(C)C)C(=O)N[C@@H](CCCCN)C(N)=O [14-mer IL32] (H-CFPKVLSDDMKKLK-NH2; C-terminus assumed)

- IC50 of inhibition of ADO activity [4]: 21000 nM
Molecule: {CH2CO}-YIVATFWLGSHRQC (thioether N-14) [CP6-K4A]

- IC50 of inhibition of ADO activity (oxidation of RGS5 (2-15) followed by LCMS; enzyme from the pET28a-ADO construct); blocks ADO with RGS5 (2-15) [5]: 0.19 µM
- IC50 of inhibition of ADO activity [6]: 200 nM
- Kd [7]: 5.8 nM
- Kd [8]: 5.8 nM and 5.64 nM and 5.96 nM
B1: CP6-F6S (peptide)
peptide: {CH2CO}-YIVKTSWLGSHRQC
modifications: thioether N-14
notes: the substitution F6S is to be applied to them; Single amino acid substituent of CP6; source: synthetic peptide

- Kd [9]: 30 nM
B2: cyclic peptide CP6 (peptide)
peptide: {CH2CO}-YIVKTFWLGSHRQC-NH2
modifications: thioether N-14
SMILES: CC[C@H](C)[C@@H]1NC(=O)[C@H](Cc2ccc(O)cc2)NC(=O)CSC[C@@H](C(N)=O)NC(=O)[C@H](CCC(N)=O)NC(=O)[C@H](CCCNC(=N)N)NC(=O)[C@H](Cc2c[nH]cn2)NC(=O)[C@H](CO)NC(=O)CNC(=O)[C@H](CC(C)C)NC(=O)[C@H](Cc2c[nH]c3ccccc23)NC(=O)[C@H](Cc2ccccc2)NC(=O)[C@H]([C@@H](C)O)NC(=O)[C@H](CCCCN)NC(=O)[C@H](C(C)C)NC1=O
notes: selected by RaPID mRNA display against ADO; also called ADO-L-06; source: synthetic peptide (Fmoc-SPPS)
